Legend:
[1] = target: T1, orthogonal hCD122 receptor (hoRb), hCD122 with H133D and Y134F (human, UniProt P14784 27-550); test: cell-based or functional assay
T1 sequence: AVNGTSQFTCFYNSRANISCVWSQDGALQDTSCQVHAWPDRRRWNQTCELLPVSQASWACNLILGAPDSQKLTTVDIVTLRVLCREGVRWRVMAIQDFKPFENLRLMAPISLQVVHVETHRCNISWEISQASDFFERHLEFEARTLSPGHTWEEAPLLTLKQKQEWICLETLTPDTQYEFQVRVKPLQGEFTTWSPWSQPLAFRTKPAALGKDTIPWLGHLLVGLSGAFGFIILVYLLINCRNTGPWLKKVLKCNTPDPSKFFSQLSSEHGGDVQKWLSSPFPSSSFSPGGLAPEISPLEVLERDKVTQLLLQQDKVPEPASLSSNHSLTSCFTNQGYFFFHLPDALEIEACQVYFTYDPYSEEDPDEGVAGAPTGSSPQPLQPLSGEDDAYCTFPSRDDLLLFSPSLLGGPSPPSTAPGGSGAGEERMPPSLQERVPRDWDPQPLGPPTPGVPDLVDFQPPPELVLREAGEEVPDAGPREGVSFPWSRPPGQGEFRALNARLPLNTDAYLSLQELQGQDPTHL

[2] = target: T1, orthogonal hCD122 receptor (hoRb), …; test: cell-based or functional assay; remark: listed apart in the source
Throughout, for Relative Proliferation Fold Change 3F8 1:10: reference of the scale not given here.
Throughout, for Relative Proliferation Fold Change 3F8 1:2: reference of the scale not given here.
Throughout, for Relative Proliferation Fold Change 3F8 1:50: reference of the scale not given here.
Throughout, for Relative Proliferation Fold Change NKL 1:10: reference of the scale not given here.
Throughout, for Relative Proliferation Fold Change NKL 1:2: reference of the scale not given here.
Throughout, for Relative Proliferation Fold Change NKL 1:50: reference of the scale not given here.

B1: H55Y, SQVLKA (ligand)
chain: APTSSSTKKTQLQLSQLLVLLKAILNGINNYKNPKLTRMLTFKFYMPKKATELKYLQCLEEELKPLEEVLNLAQSKNFHLRPRDLISNINVIVLELKGSETTFMCEYADETATIVEFLNRWITFCQSIISTLT
NKL Ortho Proliferation Signal 1:2 [1]: 47100
NKL Ortho Proliferation Signal 1:10 [1]: 37100
NKL Ortho Proliferation Signal 1:50 [1]: 17800
Relative Proliferation Fold Change NKL 1:2 [1]: 3.72 fold
Relative Proliferation Fold Change NKL 1:10 [1]: 2.34 fold
Relative Proliferation Fold Change NKL 1:50 [1]: 1.22 fold
3F8 Ortho Proliferation Signal 1:2 [2]: 24600 cts/min
3F8 Ortho Proliferation Signal 1:10 [2]: 29500 cts/min
3F8 Ortho Proliferation Signal 1:50 [2]: 16500 cts/min
Relative Proliferation Fold Change 3F8 1:2 [2]: 63 fold
Relative Proliferation Fold Change 3F8 1:10 [2]: 23.5 fold
Relative Proliferation Fold Change 3F8 1:50 [2]: 16.7 fold

B2: Q74N, SQVLKA (ligand)
chain: APTSSSTKKTQLQLSQLLVLLKAILNGINNYKNPKLTRMLTFKFYMPKKATELKHLQCLEEELKPLEEVLNLANSKNFHLRPRDLISNINVIVLELKGSETTFMCEYADETATIVEFLNRWITFCQSIISTLT
NKL Ortho Proliferation Signal 1:2 [1]: 55100
NKL Ortho Proliferation Signal 1:10 [1]: 47400
NKL Ortho Proliferation Signal 1:50 [1]: 22600
Relative Proliferation Fold Change NKL 1:2 [1]: 4.23 fold
Relative Proliferation Fold Change NKL 1:10 [1]: 3.18 fold
Relative Proliferation Fold Change NKL 1:50 [1]: 1.67 fold
3F8 Ortho Proliferation Signal 1:2 [2]: 34200 cts/min
3F8 Ortho Proliferation Signal 1:10 [2]: 36400 cts/min
3F8 Ortho Proliferation Signal 1:50 [2]: 21900 cts/min
Relative Proliferation Fold Change 3F8 1:2 [2]: 116 fold
Relative Proliferation Fold Change 3F8 1:10 [2]: 96.8 fold
Relative Proliferation Fold Change 3F8 1:50 [2]: 17.5 fold

B3: Q74H, SQVLKA (ligand)
chain: APTSSSTKKTQLQLSQLLVLLKAILNGINNYKNPKLTRMLTFKFYMPKKATELKHLQCLEEELKPLEEVLNLAHSKNFHLRPRDLISNINVIVLELKGSETTFMCEYADETATIVEFLNRWITFCQSIISTLT
NKL Ortho Proliferation Signal 1:2 [1]: 58300
NKL Ortho Proliferation Signal 1:10 [1]: 50300
NKL Ortho Proliferation Signal 1:50 [1]: 23000
Relative Proliferation Fold Change NKL 1:2 [1]: 3.89 fold
Relative Proliferation Fold Change NKL 1:10 [1]: 3.18 fold
Relative Proliferation Fold Change NKL 1:50 [1]: 1.6 fold
3F8 Ortho Proliferation Signal 1:2 [2]: 35100 cts/min
3F8 Ortho Proliferation Signal 1:10 [2]: 28700 cts/min
3F8 Ortho Proliferation Signal 1:50 [2]: 21200 cts/min
Relative Proliferation Fold Change 3F8 1:2 [2]: 64.7 fold
Relative Proliferation Fold Change 3F8 1:10 [2]: 42.9 fold
Relative Proliferation Fold Change 3F8 1:50 [2]: 53 fold

B4: Q74S, SQVLKA (ligand)
chain: APTSSSTKKTQLQLSQLLVLLKAILNGINNYKNPKLTRMLTFKFYMPKKATELKHLQCLEEELKPLEEVLNLASSKNFHLRPRDLISNINVIVLELKGSETTFMCEYADETATIVEFLNRWITFCQSIISTLT
NKL Ortho Proliferation Signal 1:2 [1]: 54600
NKL Ortho Proliferation Signal 1:10 [1]: 65700
NKL Ortho Proliferation Signal 1:50 [1]: 35000
Relative Proliferation Fold Change NKL 1:2 [1]: 4.07 fold
Relative Proliferation Fold Change NKL 1:10 [1]: 4.17 fold
Relative Proliferation Fold Change NKL 1:50 [1]: 2.44 fold
3F8 Ortho Proliferation Signal 1:2 [2]: 36400 cts/min
3F8 Ortho Proliferation Signal 1:10 [2]: 32500 cts/min
3F8 Ortho Proliferation Signal 1:50 [2]: 27100 cts/min
Relative Proliferation Fold Change 3F8 1:2 [2]: 18.7 fold
Relative Proliferation Fold Change 3F8 1:10 [2]: 56.7 fold
Relative Proliferation Fold Change 3F8 1:50 [2]: 33.8 fold

B5: L80F, SQVLKA (ligand)
chain: APTSSSTKKTQLQLSQLLVLLKAILNGINNYKNPKLTRMLTFKFYMPKKATELKHLQCLEEELKPLEEVLNLAQSKNFHFRPRDLISNINVIVLELKGSETTFMCEYADETATIVEFLNRWITFCQSIISTLT
NKL Ortho Proliferation Signal 1:2 [1]: 61200
NKL Ortho Proliferation Signal 1:10 [1]: 67800
NKL Ortho Proliferation Signal 1:50 [1]: 33200
Relative Proliferation Fold Change NKL 1:2 [1]: 4.24 fold
Relative Proliferation Fold Change NKL 1:10 [1]: 4.14 fold
Relative Proliferation Fold Change NKL 1:50 [1]: 2.27 fold
3F8 Ortho Proliferation Signal 1:2 [2]: 37200 cts/min
3F8 Ortho Proliferation Signal 1:10 [2]: 26800 cts/min
3F8 Ortho Proliferation Signal 1:50 [2]: 25800 cts/min
Relative Proliferation Fold Change 3F8 1:2 [2]: 1.01 fold
Relative Proliferation Fold Change 3F8 1:10 [2]: 2.8 fold
Relative Proliferation Fold Change 3F8 1:50 [2]: 16.8 fold

B6: L80V, SQVLKA (ligand)
chain: APTSSSTKKTQLQLSQLLVLLKAILNGINNYKNPKLTRMLTFKFYMPKKATELKHLQCLEEELKPLEEVLNLAQSKNFHVRPRDLISNINVIVLELKGSETTFMCEYADETATIVEFLNRWITFCQSIISTLT
NKL Ortho Proliferation Signal 1:2 [1]: 62500
NKL Ortho Proliferation Signal 1:10 [1]: 51600
NKL Ortho Proliferation Signal 1:50 [1]: 24300
Relative Proliferation Fold Change NKL 1:2 [1]: 4.26 fold
Relative Proliferation Fold Change NKL 1:10 [1]: 3.13 fold
Relative Proliferation Fold Change NKL 1:50 [1]: 1.58 fold
3F8 Ortho Proliferation Signal 1:2 [2]: 34900 cts/min
3F8 Ortho Proliferation Signal 1:10 [2]: 34800 cts/min
3F8 Ortho Proliferation Signal 1:50 [2]: 21200 cts/min
Relative Proliferation Fold Change 3F8 1:2 [2]: 30.6 fold
Relative Proliferation Fold Change 3F8 1:10 [2]: 38 fold
Relative Proliferation Fold Change 3F8 1:50 [2]: 32.7 fold

B7: ΔR81, SQVLKA (ligand)
chain: APTSSSTKKTQLQLSQLLVLLKAILNGINNYKNPKLTRMLTFKFYMPKKATELKHLQCLEEELKPLEEVLNLAQSKNFHLPRDLISNINVIVLELKGSETTFMCEYADETATIVEFLNRWITFCQSIISTLT
NKL Ortho Proliferation Signal 1:2 [1]: 62400
NKL Ortho Proliferation Signal 1:10 [1]: 68800
NKL Ortho Proliferation Signal 1:50 [1]: 31900
Relative Proliferation Fold Change NKL 1:2 [1]: 4.84 fold
Relative Proliferation Fold Change NKL 1:10 [1]: 4.09 fold
Relative Proliferation Fold Change NKL 1:50 [1]: 2.1 fold
3F8 Ortho Proliferation Signal 1:2 [2]: 28600 cts/min
3F8 Ortho Proliferation Signal 1:10 [2]: 32200 cts/min
3F8 Ortho Proliferation Signal 1:50 [2]: 22000 cts/min
Relative Proliferation Fold Change 3F8 1:2 [2]: 46.4 fold
Relative Proliferation Fold Change 3F8 1:10 [2]: 39 fold
Relative Proliferation Fold Change 3F8 1:50 [2]: 24 fold

B8: R81I, SQVLKA (ligand)
chain: APTSSSTKKTQLQLSQLLVLLKAILNGINNYKNPKLTRMLTFKFYMPKKATELKHLQCLEEELKPLEEVLNLAQSKNFHLIPRDLISNINVIVLELKGSETTFMCEYADETATIVEFLNRWITFCQSIISTLT
NKL Ortho Proliferation Signal 1:2 [1]: 52800
NKL Ortho Proliferation Signal 1:10 [1]: 58000
NKL Ortho Proliferation Signal 1:50 [1]: 27300
Relative Proliferation Fold Change NKL 1:2 [1]: 3.84 fold
Relative Proliferation Fold Change NKL 1:10 [1]: 3.85 fold
Relative Proliferation Fold Change NKL 1:50 [1]: 1.92 fold
3F8 Ortho Proliferation Signal 1:2 [2]: 40000 cts/min
3F8 Ortho Proliferation Signal 1:10 [2]: 46000 cts/min
3F8 Ortho Proliferation Signal 1:50 [2]: 20900 cts/min
Relative Proliferation Fold Change 3F8 1:2 [2]: 55.9 fold
Relative Proliferation Fold Change 3F8 1:10 [2]: 48.8 fold
Relative Proliferation Fold Change 3F8 1:50 [2]: 49.4 fold

B9: R81D, SQVLKA (ligand)
chain: APTSSSTKKTQLQLSQLLVLLKAILNGINNYKNPKLTRMLTFKFYMPKKATELKHLQCLEEELKPLEEVLNLAQSKNFHLDPRDLISNINVIVLELKGSETTFMCEYADETATIVEFLNRWITFCQSIISTLT
NKL Ortho Proliferation Signal 1:2 [1]: 71800
NKL Ortho Proliferation Signal 1:10 [1]: 73800
NKL Ortho Proliferation Signal 1:50 [1]: 44400
Relative Proliferation Fold Change NKL 1:2 [1]: 3.64 fold
Relative Proliferation Fold Change NKL 1:10 [1]: 4.35 fold
Relative Proliferation Fold Change NKL 1:50 [1]: 3.07 fold
3F8 Ortho Proliferation Signal 1:2 [2]: 39300 cts/min
3F8 Ortho Proliferation Signal 1:10 [2]: 30000 cts/min
3F8 Ortho Proliferation Signal 1:50 [2]: 10400 cts/min
Relative Proliferation Fold Change 3F8 1:2 [2]: 7.51 fold
Relative Proliferation Fold Change 3F8 1:10 [2]: 13.6 fold
Relative Proliferation Fold Change 3F8 1:50 [2]: 11.5 fold

B10: ΔL14, SQVLKA (ligand)
chain: APTSSSTKKTQLQSQLLVLLKAILNGINNYKNPKLTRMLTFKFYMPKKATELKHLQCLEEELKPLEEVLNLAQSKNFHLRPRDLISNINVIVLELKGSETTFMCEYADETATIVEFLNRWITFCQSIISTLT
NKL Ortho Proliferation Signal 1:2 [1]: 31800
NKL Ortho Proliferation Signal 1:10 [1]: 23500
NKL Ortho Proliferation Signal 1:50 [1]: 12200
Relative Proliferation Fold Change NKL 1:2 [1]: 2.38 fold
Relative Proliferation Fold Change NKL 1:10 [1]: 1.6 fold
Relative Proliferation Fold Change NKL 1:50 [1]: 0.86 fold
3F8 Ortho Proliferation Signal 1:2 [2]: 30300 cts/min
3F8 Ortho Proliferation Signal 1:10 [2]: 24500 cts/min
3F8 Ortho Proliferation Signal 1:50 [2]: 8130 cts/min
Relative Proliferation Fold Change 3F8 1:2 [2]: 125 fold
Relative Proliferation Fold Change 3F8 1:10 [2]: 26.5 fold
Relative Proliferation Fold Change 3F8 1:50 [2]: 13.2 fold

B11: R81Y, SQVLKA (ligand)
chain: APTSSSTKKTQLQLSQLLVLLKAILNGINNYKNPKLTRMLTFKFYMPKKATELKHLQCLEEELKPLEEVLNLAQSKNFHLYPRDLISNINVIVLELKGSETTFMCEYADETATIVEFLNRWITFCQSIISTLT
NKL Ortho Proliferation Signal 1:2 [1]: 59800
NKL Ortho Proliferation Signal 1:10 [1]: 77900
NKL Ortho Proliferation Signal 1:50 [1]: 49500
Relative Proliferation Fold Change NKL 1:2 [1]: 3.64 fold
Relative Proliferation Fold Change NKL 1:10 [1]: 4.64 fold
Relative Proliferation Fold Change NKL 1:50 [1]: 3.43 fold
3F8 Ortho Proliferation Signal 1:2 [2]: 35800 cts/min
3F8 Ortho Proliferation Signal 1:10 [2]: 46000 cts/min
3F8 Ortho Proliferation Signal 1:50 [2]: 16500 cts/min
Relative Proliferation Fold Change 3F8 1:2 [2]: 4.14 fold
Relative Proliferation Fold Change 3F8 1:10 [2]: 16.6 fold
Relative Proliferation Fold Change 3F8 1:50 [2]: 17.6 fold

B12: L85V, SQVLKA (ligand)
chain: APTSSSTKKTQLQLSQLLVLLKAILNGINNYKNPKLTRMLTFKFYMPKKATELKHLQCLEEELKPLEEVLNLAQSKNFHLRPRDVISNINVIVLELKGSETTFMCEYADETATIVEFLNRWITFCQSIISTLT
NKL Ortho Proliferation Signal 1:2 [1]: 56300
NKL Ortho Proliferation Signal 1:10 [1]: 49600
NKL Ortho Proliferation Signal 1:50 [1]: 24200
Relative Proliferation Fold Change NKL 1:2 [1]: 3.94 fold
Relative Proliferation Fold Change NKL 1:10 [1]: 3.34 fold
Relative Proliferation Fold Change NKL 1:50 [1]: 1.71 fold
3F8 Ortho Proliferation Signal 1:2 [2]: 44300 cts/min
3F8 Ortho Proliferation Signal 1:10 [2]: 41300 cts/min
3F8 Ortho Proliferation Signal 1:50 [2]: 18900 cts/min
Relative Proliferation Fold Change 3F8 1:2 [2]: 39.9 fold
Relative Proliferation Fold Change 3F8 1:10 [2]: 44.6 fold
Relative Proliferation Fold Change 3F8 1:50 [2]: 14.3 fold
